Test results from publication PMC7864929, “Crystal structure of the human PRPK–TPRKB complex” (Communications Biology, 2021).

T1: MBP-tagged OSGEP (human, UniProt Q9NPF4 1-335)
T1 construct: human OSGEP (gene bought from DNAsu); Cloned into a modified pMal-c2X vector; also called MBP-OSGEP; Kae1 (yeast ortholog); source: E. coli BL21-CodonPlus (DE3), purified (amylose resin, HiTrap Q anion exchange)
T1 sequence (looked up): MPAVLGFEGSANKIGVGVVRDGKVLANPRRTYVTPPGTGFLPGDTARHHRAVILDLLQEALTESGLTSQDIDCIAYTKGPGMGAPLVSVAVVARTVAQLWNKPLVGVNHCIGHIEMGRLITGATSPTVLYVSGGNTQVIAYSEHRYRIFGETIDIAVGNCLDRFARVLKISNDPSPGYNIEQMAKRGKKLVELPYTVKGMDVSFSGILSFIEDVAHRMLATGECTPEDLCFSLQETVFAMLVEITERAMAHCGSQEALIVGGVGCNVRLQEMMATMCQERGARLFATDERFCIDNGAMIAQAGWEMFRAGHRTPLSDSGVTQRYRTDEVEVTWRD


Target: T1, MBP-tagged OSGEP
Experiment: pull-down; GST-tagged PRPK proteins captured on 20 µl glutathione Sepharose 4B from BL21 lysates, then incubated with about 15 µg purified His-TPRKB or MBP-OSGEP; 20 mM Tris-HCl pH 8.0, 300 mM NaCl, 0.1% Nonidet P-40, 5% glycerol, 2 mM DTT, 0.4 mM PMSF; 2 h at 4°C; 4 washes; Western blot with anti-His or anti-MBP
Details: both partners purified

Row | Binder | binding result
1 | GST-tagged PRPK S250A (enzyme, human, UniProt Q96S44 1-253, looked up, human p53-related protein kinase (PRPK, TP53RK) with S250A; source: E. coli BL21 lysate, captured on glutathione Sepharose 4B resin) MAAARATTPADGEEPAPEAEALAAARERSSRFLSGLELVKQGAEARVFRGRFQGRAAVIKHRFPKGYRHPALEARLGRRRTVQEARALLRCRRAGISAPVVFFVDYASNCLYMEEIEGSVTVRDYIQSTMETEKTPQGLSNLAKTIGQVLARMHDEDLIHGDLTTSNMLLKPPLEQLNIVLIDFGLSFISALPEDKGVDLYVLEKAFLSTHPNTETVFEAFLKSYSTSSKKARPVLKKLDEVRLRGRKRAMVG | binds
2 | GST-tagged PRPK S250E (enzyme, human, UniProt Q96S44 1-253, looked up, human p53-related protein kinase (PRPK, TP53RK) with S250E; source: E. coli BL21 lysate, captured on glutathione Sepharose 4B resin) MAAARATTPADGEEPAPEAEALAAARERSSRFLSGLELVKQGAEARVFRGRFQGRAAVIKHRFPKGYRHPALEARLGRRRTVQEARALLRCRRAGISAPVVFFVDYASNCLYMEEIEGSVTVRDYIQSTMETEKTPQGLSNLAKTIGQVLARMHDEDLIHGDLTTSNMLLKPPLEQLNIVLIDFGLSFISALPEDKGVDLYVLEKAFLSTHPNTETVFEAFLKSYSTSSKKARPVLKKLDEVRLRGRKREMVG | binds
3 | GST-tagged PRPK (wild type) (enzyme, human, UniProt Q96S44 1-253, looked up, human p53-related protein kinase (PRPK, TP53RK); Cloned into pGEX-6p-1; Parent of the GST-PRPK mutants; also called GST-PRPK; TP53RK; source: E. coli BL21 lysate, captured on glutathione Sepharose 4B resin) MAAARATTPADGEEPAPEAEALAAARERSSRFLSGLELVKQGAEARVFRGRFQGRAAVIKHRFPKGYRHPALEARLGRRRTVQEARALLRCRRAGISAPVVFFVDYASNCLYMEEIEGSVTVRDYIQSTMETEKTPQGLSNLAKTIGQVLARMHDEDLIHGDLTTSNMLLKPPLEQLNIVLIDFGLSFISALPEDKGVDLYVLEKAFLSTHPNTETVFEAFLKSYSTSSKKARPVLKKLDEVRLRGRKRSMVG | binds
4 | GST-tagged PRPK K65A (enzyme, human, UniProt Q96S44 1-253, looked up, human p53-related protein kinase (PRPK, TP53RK) with K65A; source: E. coli BL21 lysate, captured on glutathione Sepharose 4B resin) MAAARATTPADGEEPAPEAEALAAARERSSRFLSGLELVKQGAEARVFRGRFQGRAAVIKHRFPAGYRHPALEARLGRRRTVQEARALLRCRRAGISAPVVFFVDYASNCLYMEEIEGSVTVRDYIQSTMETEKTPQGLSNLAKTIGQVLARMHDEDLIHGDLTTSNMLLKPPLEQLNIVLIDFGLSFISALPEDKGVDLYVLEKAFLSTHPNTETVFEAFLKSYSTSSKKARPVLKKLDEVRLRGRKRSMVG | binds
5 | GST-tagged PRPK R80A (enzyme, human, UniProt Q96S44 1-253, looked up, human p53-related protein kinase (PRPK, TP53RK) with R80A; source: E. coli BL21 lysate, captured on glutathione Sepharose 4B resin) MAAARATTPADGEEPAPEAEALAAARERSSRFLSGLELVKQGAEARVFRGRFQGRAAVIKHRFPKGYRHPALEARLGRRATVQEARALLRCRRAGISAPVVFFVDYASNCLYMEEIEGSVTVRDYIQSTMETEKTPQGLSNLAKTIGQVLARMHDEDLIHGDLTTSNMLLKPPLEQLNIVLIDFGLSFISALPEDKGVDLYVLEKAFLSTHPNTETVFEAFLKSYSTSSKKARPVLKKLDEVRLRGRKRSMVG | binds
6 | GST-tagged PRPK K205A (enzyme, human, UniProt Q96S44 1-253, looked up, human p53-related protein kinase (PRPK, TP53RK) with K205A; source: E. coli BL21 lysate, captured on glutathione Sepharose 4B resin) MAAARATTPADGEEPAPEAEALAAARERSSRFLSGLELVKQGAEARVFRGRFQGRAAVIKHRFPKGYRHPALEARLGRRRTVQEARALLRCRRAGISAPVVFFVDYASNCLYMEEIEGSVTVRDYIQSTMETEKTPQGLSNLAKTIGQVLARMHDEDLIHGDLTTSNMLLKPPLEQLNIVLIDFGLSFISALPEDKGVDLYVLEAAFLSTHPNTETVFEAFLKSYSTSSKKARPVLKKLDEVRLRGRKRSMVG | binds
